In the supplement of paper PMC11316812:
± gives the standard deviation of the averaged measurements.

Legend:
MCF7 = experiment: percentage of EdU-negative (G0-arrested) nuclei per well, 72 h; higher = more G0 arrest; details: reference: sequence is the full UniProt precursor, the tested protein was the secreted form or ectodomain
hTERT-HMEC = experiment: as above; details: reference: sequence is the full UniProt precursor, the tested protein was the secreted form or ectodomain
[1] = protein concentration 0.0175 µM
[2] = protein concentration 0.01475 µM
[3] = protein concentration 0.1475 µM
[4] = protein concentration 0.0225 µM
[5] = protein concentration 0.0168571 µM
[6] = protein concentration 0.168571 µM
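Also: secreted proteins added to cultured cells, EdU pulse at the end, nuclei found by Hoechst imaging, EdU status from nuclear versus surrounding ring intensity ratio, PBS as neutral control.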

## MLLRGVLLALQALQLAGALDLPAGSCAFEESTCGFDSVLASLPWILNEEGHYIYVDTSFGKQGEKAVLLSPDLQAEEWSCLRLVYQITTSSESLSDPSQLNLYMRFEDESFDRLLWSAKEPSDSWLIASLDLQNSSKKFKILIEGVLGQGNTASIALFEIKMTTGYCIECDFEENHLCGFVNRWNPNVNWFVGGGSIRNVHSILPQDHTFKSELGHYMYVDSVYVKHFQEVAQLISPLTTAPMAGCLSFYYQIQQGNDNVFSLYTRDVAGLYEEIWKADRPGNAAWNLAEVEFSAPYPMEVIFEVAFNGPKGGYVALDDISFSPVHCQNQTELLFSAVEASCNFEQDLCNFYQDKEGPGWTRVKVKPNMYRAGDHTTGLGYYLLANTKFTSQPGYIGRLYGPSLPGNLQYCLRFHYAIYGFLKMSDTLAVYIFEENHVVQEKIWSVLESPRGVWMQAEITFKKPMPTKVVFMSLCKSFWDCGLVALDDITIQLGSCSSSEKLPPPPGECTFEQDECTFTQEKRNRSSWHRRRGETPTSYTGPKGDHTTGVGYYMYIEASHMVYGQKARLLSRPLRGVSGKHCLTFFYHMYGGGTGLLSVYLKKEEDSEESLLWRRRGEQSISWLRALIEYSCERQHQIIFEAIRGVSIRSDIAIDDVKFQAGPCGEMEDTTQQSSGYSEDLNEIEY [Q7Z304]
MCF7; [1]
  percentage of EdU-negative: 28.1 ± 1.3%
MCF7; protein concentration 0.175 µM
  percentage of EdU-negative: 31.9 ± 1.8%
hTERT-HMEC; [1]
  percentage of EdU-negative: 5.68 ± 0.56%
hTERT-HMEC; protein concentration 0.175 µM
  percentage of EdU-negative: 8.11 ± 0.92%

## MLLRLLLAWAAAGPTLGQDPWAAEPRAACGPSSCYALFPRRRTFLEAWRACRELGGDLATPRTPEEAQRVDSLVGAGPASRLLWIGLQRQARQCQLQRPLRGFTWTTGDQDTAFTNWAQPASGGPCPAQRCVALEASGEHRWLEGSCTLAVDGYLCQFGFEGACPALQDEAGQAGPAVYTTPFHLVSTEFEWLPFGSVAAVQCQAGRGASLLCVKQPEGGVGWSRAGPLCLGTGCSPDNGGCEHECVEEVDGHVSCRCTEGFRLAADGRSCEDPCAQAPCEQQCEPGGPQGYSCHCRLGFRPAEDDPHRCVDTDECQIAGVCQQMCVNYVGGFECYCSEGHELEADGISCSPAGAMGAQASQDLGDELLDDGEDEEDEDEAWKAFNGGWTEMPGILWMEPTQPPDFALAYRPSFPEDREPQIPYPEPTWPPPLSAPRVPYHSSVLSVTRPVVVSATHPTLPSAHQPPVIPATHPALSRDHQIPVIAANYPDLPSAYQPGILSVSHSAQPPAHQPPMISTKYPELFPAHQSPMFPDTRVAGTQTTTHLPGIPPNHAPLVTTLGAQLPPQAPDALVLRTQATQLPIIPTAQPSLTTTSRSPVSPAHQISVPAATQPAALPTLLPSQSPTNQTSPISPTHPHSKAPQIPREDGPSPKLALWLPSPAPTAAPTALGEAGLAEHSQRDDRWLLVALLVPTCVFLVVLLALGIVYCTRCGPHAPNKRITDCYRWVIHAGSKSPTEPMPPRGSLTGVQTCRTSV [Q9HCU0]
MCF7; [2]
  percentage of EdU-negative: 25.7 ± 2.5%
MCF7; [3]
  percentage of EdU-negative: 27.5 ± 1.9%
hTERT-HMEC; [2]
  percentage of EdU-negative: 4.69 ± 0.05%
hTERT-HMEC; [3]
  percentage of EdU-negative: 6.87 ± 0.4%

## MLLSVPLLLGLLGLAVAEPAVYFKEQFLDGDGWTSRWIESKHKSDFGKFVLSSGKFYGDEEKDKGLQTSQDARFYALSASFEPFSNKGQTLVVQFTVKHEQNIDCGGGYVKLFPNSLDQTDMHGDSEYNIMFGPDICGPGTKKVHVIFNYKGKNVLINKDIRCKDDEFTHLYTLIVRPDNTYEVKIDNSQVESGSLEDDWDFLPPKKIKDPDASKPEDWDERAKIDDPTDSKPEDWDKPEHIPDPDAKKPEDWDEEMDGEWEPPVIQNPEYKGEWKPRQIDNPDYKGTWIHPEIDNPEYSPDPSIYAYDNFGVLGLDLWQVKSGTIFDNFLITNDEAYAEEFGNETWGVTKAAEKQMKDKQDEEQRLKEEEEDKKRKEEEEAEDKEDDEDKDEDEEDEEDKEEDEEEDVPGQAKDEL
MCF7; [4]
  percentage of EdU-negative: 21.8 ± 0.44%
MCF7; protein concentration 0.225 µM
  percentage of EdU-negative: 28.2 ± 2.5%
hTERT-HMEC; [4]
  percentage of EdU-negative: 5.2 ± 0.44%
hTERT-HMEC; protein concentration 0.225 µM
  percentage of EdU-negative: 15.5 ± 2.6%

## MLLVLVVLIPVLVSSGGPEGHYEMLGTCRMVCDPYPARGPGAGARTDGGDALSEQSGAPPPSTLVQGPQGKPGRTGKPGPPGPPGDPGPPGPVGPPGEKGEPGKPGPPGLPGAGGSGAISTATYTTVPRVAFYAGLKNPHEGYEVLKFDDVVTNLGNNYDAASGKFTCNIPGTYFFTYHVLMRGGDGTSMWADLCKNGQVRASAIAQDADQNYDYASNSVILHLDAGDEVFIKLDGGKAHGGNSNKYSTFSGFIIYSD
MCF7; [5]
  percentage of EdU-negative: 27 ± 0.61%
MCF7; [6]
  percentage of EdU-negative: 28.3 ± 0.59%
hTERT-HMEC; [5]
  percentage of EdU-negative: 4.78 ± 0.083%
hTERT-HMEC; [6]
  percentage of EdU-negative: 8.79 ± 0.3%

## MLLWVILLVLAPVSGQFARTPRPIIFLQPPWTTVFQGERVTLTCKGFRFYSPQKTKWYHRYLGKEILRETPDNILEVQESGEYRCQAQGSPLSSPVHLDFSSASLILQAPLSVFEGDSVVLRCRAKAEVTLNNTIYKNDNVLAFLNKRTDFHIPHACLKDNGAYRCTGYKESCCPVSSNTVKIQVQEPFTRPVLRASSFQPISGNPVTLTCETQLSLERSDVPLRFRFFRDDQTLGLGWSLSPNFQITAMWSKDSGFYWCKAATMPYSVISDSPRSWIQVQIPASHPVLTLSPEKALNFEGTKVTLHCETQEDSLRTLYRFYHEGVPLRHKSVRCERGASISFSLTTENSGNYYCTADNGLGAKPSKAVSLSVTVPVSHPVLNLSSPEDLIFEGAKVTLHCEAQRGSLPILYQFHHEGAALERRSANSAGGVAISFSLTAEHSGNYYCTADNGFGPQRSKAVSLSVTVPVSHPVLTLSSAEALTFEGATVTLHCEVQRGSPQILYQFYHEDMPLWSSSTPSVGRVSFSFSLTEGHSGNYYCTADNGFGPQRSEVVSLFVTVPVSRPILTLRVPRAQAVVGDLLELHCEAPRGSPPILYWFYHEDVTLGSSSAPSGGEASFNLSLTAEHSGNYSCEANNGLVAQHSDTISLSVIVPVSRPILTFRAPRAQAVVGDLLELHCEALRGSSPILYWFYHEDVTLGKISAPSGGGASFNLSLTTEHSGIYSCEADNGLEAQRSEMVTLKVAVPVSRPVLTLRAPGTHAAVGDLLELHCEALRGSPLILYRFFHEDVTLGNRSSPSGGASLNLSLTAEHSGNYSCEADNGLGAQRSETVTLYITGLTANRSGPFATGVAGGLLSIAGLAAGALLLYCWLSRKAGRKPASDPARSPSDSDSQEPTYHNVPAWEELQPVYTNANPRGENVVYSEVRIIQEKKKHAVASDPRHLRNKGSPIIYSEVKVASTPVSGSLFLASSAPHR [Q96RD9]
MCF7; [4]
  percentage of EdU-negative: 26 ± 0.75%
MCF7; protein concentration 0.225 µM
  percentage of EdU-negative: 31.1 ± 3.2%
hTERT-HMEC; [4]
  percentage of EdU-negative: 4.23 ± 0.27%
hTERT-HMEC; protein concentration 0.225 µM
  percentage of EdU-negative: 5.41 ± 0.94%

## MLPAAMKGLGLALLAVLLCSAPAHGLWCQDCTLTTNSSHCTPKQCQPSDTVCASVRITDPSSSRKDHSVNKMCASSCDFVKRHFFSDYLMGFINSGILKVDVDCCEKDLCNGAAGAGHSPWALAGGLLLSLGPALLWAGP
MCF7; [4]
  percentage of EdU-negative: 25.6 ± 3.3%
MCF7; protein concentration 0.225 µM
  percentage of EdU-negative: 26.7 ± 1.4%
hTERT-HMEC; [4]
  percentage of EdU-negative: 4.57 ± 0.15%
hTERT-HMEC; protein concentration 0.225 µM
  percentage of EdU-negative: 5.48 ± 0.5%
